Legend:
human CD3 = molecular target: T1, human CD3 (human, UniProt P07766 23-126; P04234 22-105); assay: BLI (Octet), binder on AHC sensor, 100 nM human CD3, 1:1 fit
T1 construct: also called His-tagged human CD3; human CD3 (Acro CDD-H52W1)

human EGFR = molecular target: T2, human EGFR (human, UniProt P00533 25-645, limits assumed); assay: BLI (Octet), binder on AHC sensor, 200 nM human EGFR, 1:1 fit; molecule has two EGFR-binding domains, same value printed under D1 and D4
T2 construct: Soluble antigen in Octet; construct not described

human HER3 = molecular target: T3, human HER3 (human, UniProt P21860 20-643); assay: BLI (Octet), binder on AHC sensor, 200 nM human HER3, 1:1 fit; molecule has two HER3-binding domains, same value printed under D2 and D5
T3 construct: Soluble antigen in Octet; bought; also called human HER3 (Acro ER3-H5223)

B1: SI-75P8 (other)
chain 1: EVQLQESGGGLVQAGDSLSLSCLVSGRSFNSYTMGWFRQAPGKEREFVAAILWSGPTTYYADSVKGRFTISRDNAKNTVYLQMNSLKPEDTAVYYCAAALGVLVLAPGNVYSYWGQGTQVTVSSGGGGSGGGGSQVQLQESGGRLVQPGEPLSLTCKTSGIDLSSNAIGWVRQAPGKGLEWIGVIFGSGNTYYASWAKGRFTISRSTSTVYLKMNSLRSEDTAIYYCARGGYSSDIWGQGTLVTVSSASTKGPSVFPLAPSSKSTSGGTAALGCLVKDYFPEPVTVSWNSGALTSGVHTFPAVLQSSGLYSLSSVVTVPSSSLGTQTYICNVNHKPSNTKVDKRVEPKSCDKTHTCPPCPAPEAAGGPSVFLFPPKPKDTLMISRTPEVTCVVVDVSHEDPEVKFNWYVDGVEVHNAKTKPREEQYNSTYRVVSVLTVLHQDWLNGKEYKCAVSNKALPAPIEKTISKAKGQPREPQVYTLPPSRDELTKNQVSLSCAVKGFYPSDIAVEWESNGQPENNYKTTPPVLDSDGSFFLVSKLTVDKSRWQQGNVFSCSVMHEALHNHYTQKSLSLSPGGGGGSGGGGSQVQLQQSGPGLVKPSETLSITCTVSGFSLTNYGVHWIRQAPGKGLEWLGVIWSGGNTDYNTPFTSRFTITKDNSKNQVYFKLRSVRADDTAIYYCARALTYYDYEFAYWGQGTLVTVSSGGGGSGGGGSGGGGSGGGGSEIVLTQSPSTLSVSPGERATFSCRASQSIGTNIHWYQQKPGKPPRLLIKYASESISGIPDRFSGSGSGTEFTLTISSVQSEDFAVYYCQQNNNWPTTFGPGTKLTVL
chain 2: QVQLVQSGGGLVQAGGSLSLSCAFSGRTFSMYTMGWFRQAPGKEREFVAANRGRGLSPDIADSVNGRFTISRDNAKNTLYLQMDSLKPEDTAVYYCAADLQYGSSWPQRSSAEYDYWGQGTTVTVSSGGGGSGGGGSDPQLTQSPSSLSATVGQRVTINCQSSQSVAKNNNLAWFQQKPGKPPKLLIYSASTLAAGVPSRFSGSGSGTQFTLTITRVQSEDFATYYCSARDSGNIQSFGGGTRVEIKRTVAAPSVFIFPPSDEQLKSGTASVVCLLNNFYPREAKVQWKVDNALQSGNSQESVTEQDSKDSTYSLSSTLTLSKADYEKHKVYACEVTHQGLSSPVTKSFNRGECGGDKTHTCPPCPAPEAAGGPSVFLFPPKPKDTLMISRTPEVTCVVVDVSHEDPEVKFNWYVDGVEVHNAKTKPREEQYNSTYRVVSVLTVLHQDWLNGKEYKCAVSNKALPAPIEKTISKAKGQPREPQVYTLPPSRDELTKNQVSLWCLVKGFYPSDIAVEWESNGQPENNYKTTPPVLDSDGSFFLYSKLTVDKSRWQQGNVFSCSVMHEALHNRFTQKSLSLSPGGGGGSGGGGSQVQLQESGGGLVKPGGSLSLSCAASGFTFSSYWMSWVRQAPGKGLEWVANINRDGSASYYVDSVKGRFTISRDDAKNSLYLQMNSLRAEDTAVYYCARDRGVGYFDLWGRGTLVTVSSGGGGSGGGGSGGGGSQSALTQPASVSGSPGQSITISCTGTSSDVGGYNFVSWYQQHPGKAPKLMIYDVSDRPSGVSDRFSGSKSGNTASLIISGLQADDEADYYCSSYGSSSTHVIFGGGTKVTVL
notes: D1 αEGFR VHH, D2 αHER3 VHH, D3 αCD3* (Fab), D4 αEGFR scFv, D5 αHER3 scFv
- Kd (human CD3): 44.1 nM
- Kd (human EGFR): 6.22 nM
- Kd (human HER3): 0.786 nM
